Data on one molecule can be found in patent US20230218739A1 (SICHUAN CLOVER BIOPHARMACEUTICALS, published 2023).

The test concerns the target Rabies G-Trimer (CTN-1 Strain) (ectodomain of rabies CTN-1 strain G protein fused in frame to Trimer-Tag) (Rabies virus CTN-1 strain).

B1: NGFR-Fc (nerve growth factor receptor NGFR (p75) fused to Fc) (Fc fusion)
chain: KEACPTGLYTHSGECCKACNLGEGVAQPCGANQTVCEPCLDSVTFSDVVSATEPCKPCTECVGLQSMSAPCVEADDAVCRCAYGYYQDETTGRCEACRVCEAGSGLVFSCQDKQNTVCEECPDGTYSDEANHVDPCLPCTVCEDTERQLRECTRWADAECEEIPGRWITRSTPPEGSDSTAPSTQEPEAPPEQDLIASTVAGVVTTVMGSSQPVVTRGTTDN
One may read the Kd as the constant that tells how readily two partners part at equilibrium. A lower Kd goes with tighter binding. Usually koff stands for a measure of how fast the partners let go of each other. Low values mean slow dissociation, high ones fast dissociation. A word on the kon: it is the rate constant with which the complex forms. A higher kon goes with fast association. Regarding B1, binding was put at a Kd of 2.92 nM, the koff came out at 2.39e-05 s⁻¹ and the association rate constant (kon) was determined as 8170 M⁻¹ s⁻¹.
